experiment: soluble on expression in E. coli; label from the status in PepcDB or PDB records

Row | Sequence | soluble on expression in E. coli
1 | MEKISDLIECIAYEKNLPKEMISKVIQGCLLKMAQNELDPLARYLVVEENKQLQLIQLVEVLEDGDERLVNDPSKYISLSKAKEMDPSVKIKDELSYSLSLESMKQGAINRLFKDLQYQLEKALEDSHFEAFQKRLNSVLMGQVILVDHNQNTFIEIEQQFQGVLSMRHRIKGESFKVGDSIKAVLTQVKRTKKGLLLELSRTTPKMLEALLELEVPEIKDKEIEIIHCARIPGNRAKVSFFSHNARIDPIGAAVGVKGVRINAISNELNKENIDCIEYSNVPEIYITLALAPAKILSVEIKKIPIEELNAEEKESIQERFIVNNHLQKAKVRLLDIEKSKAIGKGGVNVCLASMLTGYHIEFETIPSVKENAENESEKETPKVGVEALESLFKN | not soluble
2 | MEKLLIEGGRALNGTIRVSGAKNSAVALIPATILADTPVTIGGVPNISDVKMLGDLLEEIGGRVTYGQEEEMVVDPSNMVAMPLPNGKVKKLRASYYLMGAMLGRFKKAVIGLPGGCHLGPRPIDQHIKGFEALGAHVTNEQGAIYLRADELRGARIYLDVVSVGATINIMLAAVRAKGRTVIENAAKEPEIIDVATLLTSMGARIKGAGTDVIRIDGVDSLHGCHHTIIPDRIEAGTYMILGAASGGEVTVDNVIPQHLESVTAKLREAGVQVETNDDQITVNGDRRLKVVDIKTLVYPGFPTDLQQPFTTLLTKAHGTGVVTDTIYGARFKHIDELRRMNAQIKVEGRSAIVTGPVLLQGAKVKASDLRAGAALVIAGLMADGITEVTGLEHIDRGYENIVDKLKGLGANIWREQMTKQEIEEMKNA | not soluble
3 | MEKLLQWSIANSQGDKEAMARAGQPDPKLLQQLFGGGGPDDPTLMKESMAVIMNPEVDLETKLVAFDNFEMLIENLDNANNIENLKLWEPLLDVLVQTKDEELRAAALSIIGTAVQNNLDSQNNFMKYDNGLRSLIEIASDKTKPLDVRTKAFYALSNLIRNHKDISEKFFKLNGLDCIAPVLSDNTAKPKLKMRAIALLTAYLSSVKIDENIISVLRKDGVIESTIECLSDESNLNIIDRVLSFLSHLISSGIKFNEQELHKLNEGYKHIEPLKDRLNEDDYLAVKYVL | soluble
4 | MEKLVEWENCVSVIEAAILKHKYKQKVNKNIPSLLRVQAHIRKKMVAQ | soluble
5 | MEKTLETVPLERKKREKEQFRKLFIGGLSFETTEESLRNYYEQWGKLTDCVVMRDPASKRSRGFGFVTFSSMAEVDAAMAARPHSIDGRVVEPKRAVAREESG | soluble
6 | MEKVMKCHRVEELLQLLEPEWHKDSELNLIQFLLKLAQEAGYQGALEDLTDDVLIYHLKMRNSAKDAVIPGLKKDYEDDFKTAILRARGIIK | not soluble
7 | MELIRNLDDANMGEVYWRLYRRYISLFIENEADDAYAWRCARALDELDDAVIERLCAASLRYRAARLERLGESAEEVAPARGVLERIEPGELIVPDPEQGDEAVIHLSLNCEWDREHGMEWIVRGGEVLYVGPFHGEDPWRDFTVKEPWNYA | not soluble
8 | MELLVKMGWDDWFAAHAGASSDAGRPGRVVAEQRGEYRVRTADGEVAAILTGRAMRETAGDRLERPVVGDWVIVEPVAGDSTVLVRAVLPRRTILARRESGRGAEVQPVAANVDIVFIVAGLDGALNLRRLERFLAAARESGAEPVVLLTKSDLAGDPAAPAEEAATVAPGIRVMTVSSLDGAGVDEVGALLAPGVTACFIGPSGVGKSSLVNLLAGDPVMAIGAVRERDAKGRHTTTHRQLILLPGGGIVIDTPGMREFGLWQVDEGIDAAFPEIAELAAGCRFHDCSHRHEPGCAVRTALAEGGLDPGRYGSYLKLRLEEETMATLADAEGRRERKKGERRMAKGLRAVLRKKGKK | not soluble
9 | MELQQRTLTIGLGNDIAVQTEGVGFIRGQLVADHAEINSVFKVVVKAALIVVKTLFADGYPHAIFQRFLMPDNRNRQHRADKAVGLVGIADDAEIRIAFCLISNAFFFTELIIGIGCGKADCGHFFVVFAAGSASVHKVSDFQNEFAVKPFAGKQHPHQYIGNHAGINRPPIISPQPCQQSGKRPVDYKKYAPNLRYPAGIAHGFFRQVGLLQPRKFFNHRLPGKQAAAEHRQHHQIDEDGIPIHRIMPPEHQYCGKKQCNKQSRITLLGQFGSQGAQQPQPAHRRRQPNKPARLPAVYSGLTKTSTALPRLAVLSAASSPCPDFC | not soluble
10 | MELSPVFARRLYLALLVESLERPNVPKLIEKTGWPRRTIQDVIKAMPGIGIELNFVQDGRRHNDGYYQLSDWGPFDSQWVTERKKDIAASLGFCA | not soluble
11 | MELSSEHKALFSLLRAGLWEREPDDLSPFPLTDAQWWNVYRMAVRQTVTGIVCRGLHHLPEALLPGDALMIRWVAETDRIERKNRRMDAVVCLLAQRMGRNGLHPVLLKGQGVAAFYEHPLTRECGDIDLCFLSEEEEREAAELMRRVGCRTEKQPDGSNCYSWQGVEVEHHTRLFDLHNPLLKVYLSALVREHGFTEFRPGGRDGLPEGNQSGEFPATISVPSPLPNLLLLNAHLLKHLLGHGVGLRQFCDMARAYHTLCGSYSPEGLEAVYRRTGLLRWSAQLHTFLTEYLGLHRAELPYADTDACSSPELLRIVLEGGNFGQYGGTKGKASQARWERKLRTFLSFWKHRGFSSAYARKEAFWISVRLIIGNLR | not soluble
12 | MELTKIRVKTIGYYHRDSEMKATPGRLPKNLNLACLTPMQNKEKFPNMNIEVLDSGKGELMMESLLDYISQTSCLQDEQPGFVTNKQLLVALTRTGSLAIHLFRWNGTTYLLKFNEDESVNQNFGAAFEHHCTKTDDPINENEPVRKAVMIAEIPRGKGVHSVLYSGQIDAVDNEVNRMHYELKVLSGGLTEHFWKTKSCMFYWQAVFGKADVLIIGSRTGKCPNDPKTTWPKEWPPFSVYQVETLEQNQIPESAAEECLKKVLMDPAPEWKPLEGEESVCYFLDLVEEYVKNNGDCYVFTRSDENPDWIVKEDEESVAEFRDVVRHYLAS | not soluble
13 | MELYELAQAAGGGIDPDVFKILVDLLKLNVAPLAVFQMLKSMCAGQRLASEPQDPAAVSLPTSSVPETRGRDKGSAALGGVLALAERSNHEGSSQRMPRQPSATRLPKGGGPGKSPTQGST | soluble
14 | MEMAAAVRKCATFIEEKIGKHIDVTTMAYNRLMNHIRHMVSRAATGEKLKVDLNQFIEKNYPESFALAGDICKELGKDLNHEFLDNETGYLAIHIEQIKCDEMVSE | not soluble
15 | MENAFKNKALYHQLVDLLQERIETCMIPHDKLPSERELTAQYGVSRTTVRLALQELENRGSIYRRHGKGTFVSDIKKEAADLAGAYSFTEQMKGLGRKPHTRILSFEKLEADKFICQHLNLSLGEAVFKLSRLRIADNEPLMVEDTYLPVKFFLSLTDQLLRSKPLYDLFSEDFKQTVRLADEELYASIASKEDAKLLMIPEGAPVLHLARQTYNMKNEIIEFTLSVARADQFHYQIRHIRNS | not soluble
16 | MENAGKATSLQSSRDLFHRLMSENSSGGWEKSWEAGATPWDLGKPTPVIAHLVETGSLPNGRALVPGCGTGYDVVAMASPDRHVVGLDISKTAVERSTKKFSTLPNAKYFSFLSEDFFTWEPAEKFDLIFDYTFFCAFEPGVRPLWAQRMEKLLKPGGELITLMFPIDERSGGPPYEVSVSEYEKVLIPLGFEAISIVDNELAVGPRKGMEKLGRWKKSSTFHSTL | soluble
17 | MENEMKEKAVIFTGNSISHEDAKKILLANYQPPVRRFQLEKFIQQGYKVMGIIDGIFFDRAAVGHREIISALNAGVRVVGGASMGALRASELDTHGMIGVGKVYEWYRDGVIESDDEVAISTNPETFEPISVPLVNIRETLKAALGAGILSEKEYEDILELAISTYYPDRSYLGLTKEGAKKGLISEEKRKLLLDFCINSEVDVKKRDAVLVIETVKRLVEETEV | not soluble
18 | MENIFLKRLEFKAFEEDSVFSKIEGLNKFNSLNFKKPITFFSGENGTGKSTLLEAIAVNWGFNPEGGSINFNFSTKDTHLDLHNYLTVGKSVKRATDGFFLRAESFYNVATYAENIDLDFSEYGDKSLHHQSHGESFLNLVNHRFRGNGLYLLDEPEAALSPQRQLALMISIKKLIDEGSQFIIVSHSPILLAMPDSQIISFDKDSPLEITYEESMPYEITSLFLNNKNRILSHLFAE | not soluble
19 | MENKTVNQVIHYVYEGGGEAATDHNATVVFSQTITTDKVTGEKTYSDWTADNGDSFASVTSPVIDGYTADQLKVSEMTGITVDTEDISVTVTYTRNQGTIDVTYIDETTGKILEHHHHHH | not soluble
20 | MENLQIGVVGVGVMGKSLALNFESKGYSVALYDISKEKVDETIEENRGKNLVGTHIVEEFVNSLESPRKILLMVNAGEITDKAIDSLVPHLDKGDILIDGGNTYFVDTIRRNKRLAEEGINFIGAGVSGGEEGALKGPSIMPGGQKDAYEKVKDMLENISAKVNNEPCCSYIGPNGAGHYVKMVHNGIEYGDMQLICEAYFFLKQTLDLTAEEFHEIFAEWNKGELNSYLIEITADIFKKKDEETGKPLVDVILDTAGQKGTGKWTSQSALDLGISLPIITESVFARCISALKEERVNASKVLSGPKDKTAIGVEKAELIEAVRQALYMSKICSYAQGFTQLKAASEEYNWNLDFGSISMLWRGGCIIRAAFLQNIKEAYETNTDLPNLLLDPYFKEIVESYQGGLRQIISMAVQQGIPIPAFSAAISYYDSYRTAKLPANLLQAQRDYFGAHTYKRVDKEGTFHTKWI | not soluble
21 | MENQAALCVLLSDRANTHAHIFVHPHFLSFTLTKSCFCCGNLIYWFVTLYLNFRSRKKSEKMRSRSGSGVRLDRILFMVEQTICSHQNPITALFANQKDFPGHAWVRDNVYIAQALWALYRAYMKCADFDEDLTKAKELGFTCVKMMQSILECLMRQAEKVELFKKYQRPLDALHSKFAVGTKGTVCGDADWGHLQMDAISLYLLTLAQITASGLQVVRNFDEVAFIQNLVYYIETGYRTPDYGVWERGDKTNQGIRELNASSIGMVKAALQALNDVGDLFVDGSRGSVVHVLPDEIEQCSAVLSSMLPRESFSKETDAALLGIISYPAFCVEDPELVSQTRETITQRLLGKYGCRRFMRDGYKTVLEDASRLYYNKSELQQFEDIECEWPIFLCYLILDAMYSKDDDAVEAYWRQLESVLVLSDKGFRLVPELYVVLKEHVSAEKAHPGTQDRVPGGATPFLWAQSLYVIICLLYEGFLLPAELDPLSRRLSVYEKRPPCEVQVTVLAESLDVQRELRAHDIHVQCVDEIDPVFTILPASALGQLLAKIGESKKLNLSGRPLDRPIGLLSTSRLYQIGNKFVIFTPQFMDSRRSHLMYDIRILTDEWSSELQYIYASWNSVSISGRPLVVLVITQGMLSTEGLSHFSNIHLNRHMKSTVIGAIKKINTGYLSGARVVMKDLSDFFRTTAVSKMEFRDKSAEDTLRSVAAEKVQFTLLTEDATEAKNEKITTPRGPRTLRRGESVKDRSAYTAVHKASMRHRSIALDSNDADLMKLRLAYKSRPRDLQDMDSTYQSPPPTQTPLGLVKEHSSGELRQQLLKTTRRGAENETTHRDLTAEQMNEMKADDLLDLVNETTVLEEQISIVHCLWMKFGPDYDTELGCQHITVRMLMEEVHTKACEAREWALVRLTAGLLKKQLEEPQQSCYSSFVSPFELKSMIFSLLSGRLLEEYAEDGIHYSDTIRETRTGIGSFRRQIEERKSLRKSTRSVGGLEIPKEEDEDEEADEDDFQFGIWLRHRRIDGALNRVPNGFYAILWDTVHKMPHGVKINDTVLHWGLTQEMTRKEIKFALESEEALNRIAEPEYRELVVETLWLLGRLEKLVLLEQPNIPRDRPLDVDHILHVANQIFVDHNKHLETIVMECCASSNPNNTRCDGARNICKHFYDSAPAGEYGTSHYIIRALMQLYS | not soluble

From the DeepSol protein solubility set
